The results in this text go back to US20020168372A1 (published 2002).

This data set deals with the molecule itself. Briefly: self-assembly; CsCl gradient and TEM.

B1: HPV16 L1 protein of clone P114/16/11 (114/K) (other)
chain: MSLWLPSEATVYLPPVPVSKVVSTDEYVARTNIYYHAGTSRLLAVGHPYFPIKKPNNNKILVPKVSGLQYRVFRIHLPDPNKFGFPDTSFYNPDTQRLVWACVGVEVGRGQPLGVGISGHPLLNKLDDTENASAYAANAGVDNRECISMDYKQTQLCLIGCKPPIGEHWGKGSPCTNVAVNPGDCPPLELINTVIQDGDMVDTGFGAMDFTTLQANKSEVPLDICTSICKYPDYIKMVSEPYGDSLFFYLRREQMFVRHLFNRAGTVGENVPDDLYIKGSGSTANLASSNYFPTPSGSMVTSDAQIFNKPYWLQRAQGHNNGICWGNQLFVTVVDTTRSTNMSLCAAISTSETTYKNTNFKEYLRHGEEYDLQFIFQLCKITLTADVMTYIHSMNSTILEDWNFGLQPPPGGTLEDTYRFVTSQAIACQKHTPPAPKEDPLKKYTFWEVNLKEKFSADLDQFPLGRKFLLQAGLKAKPKFTLGKRKATPTTSSTSTTAKRKKRKL
notes: Differs from prototype L1 only by His202Asp; Expressed in Sf-9 insect cells; self-assembles into VLP; also called 114K-L1; 114/K-L1
For the protein B1, the binding result is listed as “binds”.

B2: HPV16 L1 protein of clone P114/16/2 (114/B) (other)
chain: MSLWLPSEATVYLPPVPVSKVVSTDEYVARTNIYYHAGTSRLLAVGHPYFPIKKPNNNKILVPKVSGLQYRVFRIHLPDPNKFGFPDTSFYNPDTQRLVWACVGVEVGRGQPLGVGISGHPLLNKLDDTENASAYAANAGVDNRECISMDYKQTQLCLIGCKPPIGEHWGKGSPCTNVAVNPGDCPPLELINTIIQDGDMVDTGFGAMDFTTLQANKSEVPLDICTSICKYPDYIKMVSEPYGDSLFFYLRREQMFVRHLFNRAGAVGENVPDDLYIKGSGSTANLASSNYFPTPSGSMVTSDAQIFNKPYWLQRAQGHNNGICWGNQLFVTVVDTTRSTNMSLCAAISTSETTYKNTNFKEYLRHGEEYDLQFIFQLCKITLTADVMTYIHSMNSTILEDWNFGLQPPPGGTLEDTYRFVTSQAIACQKHTPPAPKEDPLKKYTFWEVNLKEKFSADLDQFPLGRKFLLQAGLKAKPKFTLGKRKATPTTSSTSTTAKRKKRKL
notes: Differs from prototype L1 by Val194Ile, His202Asp and Thr266Ala; Expressed in Sf-9 insect cells; self-assembles into VLP
B2: the binding result is “binds”.
